In paper PMC9349299:

Key:
[1] = target: AvmM (Streptomyces sp. TP-A0867); experiment: crystal structure; sitting drop, 22 °C; protein 10 mg/mL in 50 mM NaCl, 20 mM Tris pH 8.0; reservoir 0.2 M magnesium acetate, 0.1 M sodium cacodylate pH 6.5, 20% PEG 8000; apo AvmM at 2.09 Å and AvmM with product 2 at 2.5 Å
[2] = target: AvmM (Streptomyces sp. TP-A0867); experiment: SEC; HiLoad 16/600 Superdex 200 pg, 50 mM NaCl, 20 mM Tris pH 8.0, 4 °C, 1 mL/min; calibrated with cytochrome c, ovalbumin, aldolase, ferritin

stoichiometry N [1]: 3
stoichiometry N [2]: 3
Substance: AvmM (enzyme)
